Experimental data published in the Immune Epitope Database (IEDB).

Legend:
HLA-A*32:15 = assay: IEDB peptide-MHC binding, purified MHC/competitive/fluorescence; filed as Kd, often an IC50 or EC50 that approximates it; ≥ and ≤ were set here for values at or beyond the usual limits of such assays; conditions: source organism: Human alphaherpesvirus 1
HLA-B*83:01 = assay: as above
HLA-B*45:06 = assay: as above
HLA-B*15:42 = assay: as above
HLA-C*05:01 = assay: IEDB peptide-MHC binding, purified MHC/direct/fluorescence; filed as Kd, often an IC50 or EC50 that approximates it; ≥ and ≤ were set here for values at or beyond the usual limits of such assays; conditions: source organism: Human alphaherpesvirus 1
HLA-B*51:01 = assay: as above; conditions: source organism: Human alphaherpesvirus 1
HLA-A*68:02 = assay: IEDB peptide-MHC binding, purified MHC/competitive/fluorescence; filed as Kd, often an IC50 or EC50 that approximates it; ≥ and ≤ were set here for values at or beyond the usual limits of such assays; conditions: source organism: Coxiella burnetii Dugway 5J108-111
HLA-A*26:03 = assay: as above; conditions: source organism: Coxiella burnetii Dugway 5J108-111
HLA-B*58:01 = assay: IEDB peptide-MHC binding, purified MHC/direct/fluorescence; filed as Kd, often an IC50 or EC50 that approximates it; ≥ and ≤ were set here for values at or beyond the usual limits of such assays; conditions: source organism: Coxiella burnetii
HLA-A*26:01 = assay: as above; conditions: source organism: Coxiella burnetii RSA 493
HLA-A*01:01 = assay: as above; conditions: source organism: Coxiella burnetii
HLA-B*15:17 = assay: as above; conditions: source organism: Coxiella burnetii
HLA-B*15:01 = assay: as above; conditions: source organism: Coxiella burnetii
HLA-A*26:02 = assay: as above; conditions: source organism: Coxiella burnetii RSA 493
HLA-B*46:01 = assay: as above; conditions: source organism: Coxiella burnetii
HLA-A*31:01 = assay: as above; conditions: source organism: Coxiella burnetii
HLA-B*08:02 = assay: as above; conditions: source organism: Coxiella burnetii RSA 493
HLA-A*11:01 = assay: as above; conditions: source organism: Coxiella burnetii
HLA-B*18:01 = assay: as above; conditions: source organism: Coxiella burnetii
HLA-B*07:02 = assay: as above; conditions: source organism: Coxiella burnetii
HLA-A*03:01 [1] = assay: as above; conditions: source organism: Coxiella burnetii
HLA-B*48:01 = assay: as above; conditions: source organism: Coxiella burnetii
HLA-B*40:01 = assay: as above; conditions: source organism: Coxiella burnetii
HLA-B*27:05 = assay: as above; conditions: source organism: Coxiella burnetii
HLA-B*08:01 = assay: as above; conditions: source organism: Coxiella burnetii RSA 493
HLA-B*57:01 = assay: as above; conditions: source organism: Coxiella burnetii
HLA-C*06:02 = assay: IEDB peptide-MHC binding, purified MHC/competitive/fluorescence; filed as Kd, often an IC50 or EC50 that approximates it; ≥ and ≤ were set here for values at or beyond the usual limits of such assays; conditions: source organism: Vibrio vulnificus YJ016
HLA-B*27:20 = assay: as above; conditions: source organism: Vibrio vulnificus YJ016
HLA-B*40:13 = assay: as above; conditions: source organism: Vibrio vulnificus YJ016
HLA-C*14:02 = assay: as above; conditions: source organism: Vibrio vulnificus YJ016
HLA-C*04:01 = assay: as above; conditions: source organism: Vibrio vulnificus YJ016
HLA-A*03:01 [2] = assay: as above; conditions: source organism: Vibrio vulnificus YJ016
HLA-C*03:03 = assay: IEDB peptide-MHC binding, purified MHC/direct/fluorescence; filed as Kd, often an IC50 or EC50 that approximates it; ≥ and ≤ were set here for values at or beyond the usual limits of such assays; conditions: source organism: Vibrio vulnificus YJ016
[3] = source organism: Human alphaherpesvirus 1
[4] = source organism: Vibrio vulnificus YJ016

MPYAAHDPI
Kd (HLA-A*32:15): 0.136 µM | Kd (HLA-B*83:01; [3]): 0.172 µM | Kd (HLA-B*45:06; [3]): ≥ 5 µM | Kd (HLA-B*15:42; [3]): ≥ 5 µM | Kd (HLA-C*05:01): ≥ 20 µM | Kd (HLA-B*51:01): 0.364 µM

IIGLLKIFR
Kd (HLA-A*68:02): 1.32 µM | Kd (HLA-A*26:03): ≥ 20 µM | Kd (HLA-B*58:01): ≥ 20 µM | Kd (HLA-A*26:01): ≥ 20 µM | Kd (HLA-A*01:01): ≥ 20 µM | Kd (HLA-B*15:17): ≥ 20 µM | Kd (HLA-B*15:01): ≥ 20 µM | Kd (HLA-A*26:02): ≥ 20 µM | Kd (HLA-B*46:01): ≥ 20 µM | Kd (HLA-A*31:01): 0.0227 µM | Kd (HLA-B*08:02): ≥ 20 µM | Kd (HLA-A*11:01): 0.225 µM | Kd (HLA-B*18:01): ≥ 20 µM | Kd (HLA-B*07:02): ≥ 20 µM | Kd (HLA-A*03:01 [1]): 0.407 µM | Kd (HLA-B*48:01): ≥ 20 µM | Kd (HLA-B*40:01): ≥ 20 µM | Kd (HLA-B*27:05): ≥ 20 µM | Kd (HLA-B*08:01): ≥ 20 µM | Kd (HLA-B*57:01): ≥ 20 µM

KMFNRASYF
Kd (HLA-C*06:02): 0.068 µM | Kd (HLA-B*27:20): 0.0012 µM | Kd (HLA-B*83:01; [4]): ≥ 5 µM | Kd (HLA-B*40:13): 0.0024 µM | Kd (HLA-C*14:02): 0.004 µM | Kd (HLA-C*04:01): 0.304 µM | Kd (HLA-A*03:01 [2]): 0.0048 µM | Kd (HLA-B*45:06; [4]): ≥ 5 µM | Kd (HLA-B*15:42; [4]): ≥ 5 µM | Kd (HLA-C*03:03): 2.72 µM
